For one substance, β-galactosidase activity (two-hybrid output) results are on record in PMC3225178.

This experiment has as its target SmLip residues 27-176 (mature Lip minus signal peptide) fused to T18 (pSC072) or to T25 (pSC080) (Serratia marcescens). Briefly: two-hybrid.

Bounds are passed on as bounds.

Turning to “SmLip residues 27-176 (mature Lip minus signal peptide) fused to T18 (pSC072) or to T25 (pSC080) (domain or fragment)”, the β-galactosidase activity (two-hybrid output) is more than 5000 Miller units.
